The results in this text go back to article PMC12008302.

The nature of series [1]: intracellular IDUA activity 24 h after enzyme addition. The conditions noted are these: glycan changed form; control: HM-IDUA.
Series [2] can be described thus: AcidiFluor ORANGE live-cell imaging of lysosomal delivery. The conditions noted are these: glycan changed form; control: AFO-labeled HM-IDUA.

B1: α-L-iduronidase (hIDUA): M6P-IDUA (Endo-D, then Endo-M N175Q transglycosylation) (protein)
parent chain: MRPLRPRAALLALLASLLAAPPVAPAEAPHLVHVDAARALWPLRRFWRSTGFCPPLPHSQADQYVLSWDQQLNLAYVGAVPHRGIKQVRTHWLLELVTTRGSTGRGLSYNFTHLDGYLDLLRENQLLPGFELMGSASGHFTDFEDKQQVFEWKDLVSSLARRYIGRYGLAHVSKWNFETWNEPDHHDFDNVSMTMQGFLNYYDACSEGLRAASPALRLGGPGDSFHTPPRSPLSWGLLRHCHDGTNFFTGEAGVRLDYISLHRKGARSSISILEQEKVVAQQIRQLFPKFADTPIYNDEADPLVGWSLPQPWRADVTYAAMVVKVIAQHQNLLLANTTSAFPYALLSNDNAFLSYHPHPFAQRTLTARFQVNNTRPPHVQLLRKPVLTAMGLLALLDEEQLWAEVSQAGTVLDSNHTVGVLASAHRPQGPADAWRAAVLIYASDDTRAHPNRSVAVTLRLRGVPPGPGLVYVTRYLDNGLCSPDGEWRRLGRPVFPTAEQFRRMRAAEDPVAAAPRPLPAGGRLTLRPALRLPSLLLVHVCARPEKPPGQVTRLRALPLTQGQLVLVWSDEHVGSKCLWTYEIQFSQDGKAYTPVSRKPSTFNLFVFSPDTGAVSGSYRVRALDYWARPGPFSDPVPYLEVPVPRGPPSPGNP
As to B1, the “other: cellular uptake” value in series [1] is recorded as “increases”.

B2: α-L-iduronidase (hIDUA): SG-IDUA (Endo-CC N180H transglycosylation) (protein)
parent chain: MRPLRPRAALLALLASLLAAPPVAPAEAPHLVHVDAARALWPLRRFWRSTGFCPPLPHSQADQYVLSWDQQLNLAYVGAVPHRGIKQVRTHWLLELVTTRGSTGRGLSYNFTHLDGYLDLLRENQLLPGFELMGSASGHFTDFEDKQQVFEWKDLVSSLARRYIGRYGLAHVSKWNFETWNEPDHHDFDNVSMTMQGFLNYYDACSEGLRAASPALRLGGPGDSFHTPPRSPLSWGLLRHCHDGTNFFTGEAGVRLDYISLHRKGARSSISILEQEKVVAQQIRQLFPKFADTPIYNDEADPLVGWSLPQPWRADVTYAAMVVKVIAQHQNLLLANTTSAFPYALLSNDNAFLSYHPHPFAQRTLTARFQVNNTRPPHVQLLRKPVLTAMGLLALLDEEQLWAEVSQAGTVLDSNHTVGVLASAHRPQGPADAWRAAVLIYASDDTRAHPNRSVAVTLRLRGVPPGPGLVYVTRYLDNGLCSPDGEWRRLGRPVFPTAEQFRRMRAAEDPVAAAPRPLPAGGRLTLRPALRLPSLLLVHVCARPEKPPGQVTRLRALPLTQGQLVLVWSDEHVGSKCLWTYEIQFSQDGKAYTPVSRKPSTFNLFVFSPDTGAVSGSYRVRALDYWARPGPFSDPVPYLEVPVPRGPPSPGNP
With B2, in series [1], the “other: cellular uptake” value was “increases”.

B3: α-L-iduronidase (hIDUA): SG-IDUA (protein)
parent chain: MRPLRPRAALLALLASLLAAPPVAPAEAPHLVHVDAARALWPLRRFWRSTGFCPPLPHSQADQYVLSWDQQLNLAYVGAVPHRGIKQVRTHWLLELVTTRGSTGRGLSYNFTHLDGYLDLLRENQLLPGFELMGSASGHFTDFEDKQQVFEWKDLVSSLARRYIGRYGLAHVSKWNFETWNEPDHHDFDNVSMTMQGFLNYYDACSEGLRAASPALRLGGPGDSFHTPPRSPLSWGLLRHCHDGTNFFTGEAGVRLDYISLHRKGARSSISILEQEKVVAQQIRQLFPKFADTPIYNDEADPLVGWSLPQPWRADVTYAAMVVKVIAQHQNLLLANTTSAFPYALLSNDNAFLSYHPHPFAQRTLTARFQVNNTRPPHVQLLRKPVLTAMGLLALLDEEQLWAEVSQAGTVLDSNHTVGVLASAHRPQGPADAWRAAVLIYASDDTRAHPNRSVAVTLRLRGVPPGPGLVYVTRYLDNGLCSPDGEWRRLGRPVFPTAEQFRRMRAAEDPVAAAPRPLPAGGRLTLRPALRLPSLLLVHVCARPEKPPGQVTRLRALPLTQGQLVLVWSDEHVGSKCLWTYEIQFSQDGKAYTPVSRKPSTFNLFVFSPDTGAVSGSYRVRALDYWARPGPFSDPVPYLEVPVPRGPPSPGNP
On to B3, for which the localisation_or_trafficking result in series [2] is “increases”.

B4: α-L-iduronidase (hIDUA): M6P-IDUA (protein)
parent chain: MRPLRPRAALLALLASLLAAPPVAPAEAPHLVHVDAARALWPLRRFWRSTGFCPPLPHSQADQYVLSWDQQLNLAYVGAVPHRGIKQVRTHWLLELVTTRGSTGRGLSYNFTHLDGYLDLLRENQLLPGFELMGSASGHFTDFEDKQQVFEWKDLVSSLARRYIGRYGLAHVSKWNFETWNEPDHHDFDNVSMTMQGFLNYYDACSEGLRAASPALRLGGPGDSFHTPPRSPLSWGLLRHCHDGTNFFTGEAGVRLDYISLHRKGARSSISILEQEKVVAQQIRQLFPKFADTPIYNDEADPLVGWSLPQPWRADVTYAAMVVKVIAQHQNLLLANTTSAFPYALLSNDNAFLSYHPHPFAQRTLTARFQVNNTRPPHVQLLRKPVLTAMGLLALLDEEQLWAEVSQAGTVLDSNHTVGVLASAHRPQGPADAWRAAVLIYASDDTRAHPNRSVAVTLRLRGVPPGPGLVYVTRYLDNGLCSPDGEWRRLGRPVFPTAEQFRRMRAAEDPVAAAPRPLPAGGRLTLRPALRLPSLLLVHVCARPEKPPGQVTRLRALPLTQGQLVLVWSDEHVGSKCLWTYEIQFSQDGKAYTPVSRKPSTFNLFVFSPDTGAVSGSYRVRALDYWARPGPFSDPVPYLEVPVPRGPPSPGNP
With B4, the localisation_or_trafficking result in series [2] is given as “increases”.
